These results are taken from patent publication US20200308286A1, “METHODS, COMPOSITIONS, AND KITS FOR TREATMENT OF CANCER” (Fusion Pharmaceuticals, Inc., priority 2017, published 2020).

Data set [1] relates to human UM-UC-1 bladder cancer cell line. The data set is described as follows: Conditional survival study (tumor growth delay) in UM-UC-1 bladder cancer xenograft mice. Format: in vivo. The conditions noted are these: administered as single agent. As for the experimental part: Efficacy was assessed using tumor growth delay in a conditional survival study.
Another data set has as its system other FGFRs. The conditions noted are these: cited from earlier work.
Data set [2] relates to cancers expressing both wild-type and genetically activated forms of FGFR3. To be noted: Du 2011; cited from earlier work.
A short description of data set [3]: Phase 1b/2 study of B-701 and docetaxel in advanced UCC, Cohort 1: safety. To be noted: Cohort 1, n=19, B-701 given with docetaxel.
Procedure: Docetaxel was administered intravenously over approximately 60 minutes at a dosage of 75 mg/m^2. […] Administration was carried out every 3 weeks (q3w). […] The primary objective was to evaluate progression-free survival (PFS) and safety. Secondary objectives included evaluation of overall response rate (ORR), duration of response (DOR), disease control rate (DCR), and overall survival (OS). Each of these objectives was evaluated for correlations with FGFR3 expression and/or FGFR3 mutations/fusions.
Setting [4] is: resolved after docetaxel was discontinued.

Regarding `Nc1ccn([C@@H]2O[C@H](CO)[C@@H](O)C2(F)F)c(=O)n1` [gemcitabine], the “survival of tumor bearing UM-UC-1 xenograft mice” value (shortened to “survival”) in data set [1] was “significantly extended survival”.

With `CC(=O)O[C@H]1C(=O)[C@@]2(C)[C@H]([C@H](OC(=O)c3ccccc3)[C@]3(O)C[C@H](OC(=O)[C@H](O)[C@@H](NC(=O)c4ccccc4)c4ccccc4)C(C)=C1C3(C)C)[C@]1(OC(C)=O)CO[C@@H]1C[C@@H]2O` [paclitaxel], the “survival” value in data set [1] was “significantly extended survival”.

As to “B-701: human FGFR3 antagonistic monoclonal antibody MFGR1877S (CAS No. 1312305-12-6), human IgG1 backbone; heavy chain SEQ ID NO:9, light chain SEQ ID NO:10”, the “cross-reactivity with other FGFRs” value in the data set on other FGFRs is recorded as “no cross-reactivity”. Besides, the efficacy entry in data set [2] is reported as “efficacious”. In data set [3], the “Grade 3 or higher AE related to B-701: Colitis, # of subjects” value amounted to 1 subjects; the “Grade 3 or higher AE related to B-701: Colitis, % of subjects” value was “(5%)”; the “Grade 3 or higher AE related to B-701: DIC, # of subjects” value is listed as 1 subjects; the “Grade 3 or higher AE related to B-701: DIC, % of subjects” value is on record as “(5%)”. Further, in data set [3], the “Grade 3 or higher AE related to B-701: Decreased WBCs, # of subjects” value worked out at 2 subjects; the “Grade 3 or higher AE related to B-701: Decreased WBCs, % of subjects” value was “(11%)”; the “Grade 3 or higher AE related to B-701: Decreased lymphocytes, # of subjects” value was 1 subjects; the “Grade 3 or higher AE related to B-701: Decreased lymphocytes, % of subjects” value is recorded as “(5%)”. Moreover, in data set [3], the “Grade 3 or higher AE related to B-701: Decreased neutrophil count, # of subjects” value is 4 subjects; the “Grade 3 or higher AE related to B-701: Decreased neutrophil count, % of subjects” value was “(21%)”; the “Grade 3 or higher AE related to B-701: Diarrhea, # of subjects” value was found to be 1 subjects; the “Grade 3 or higher AE related to B-701: Diarrhea, % of subjects” value is listed as “(5%)”. Also, in data set [3], the “Grade 3 or higher AE related to B-701: Fatigue, # of subjects” value is reported as 1 subjects; the “Grade 3 or higher AE related to B-701: Fatigue, % of subjects” value was “(5%)”; the “Grade 3 or higher AE related to B-701: Hyponatremia, # of subjects” value is on record as 1 subjects; the “Grade 3 or higher AE related to B-701: Hyponatremia, % of subjects” value is given as “(5%)”. Moreover, in data set [3], the “Grade 3 or higher AE related to B-701: Thrombocytopenia, # of subjects” value is reported as 1 subjects and the “Grade 3 or higher AE related to B-701: Thrombocytopenia, % of subjects” value is “(5%)”. Moreover, in data set [3] (setting [4]), the “Grade 3 or higher AE related to B-701: ALT elevation, # of subjects” value worked out at 1 subjects; the “Grade 3 or higher AE related to B-701: ALT elevation, % of subjects” value is on record as “(5%)”; the “Grade 3 or higher AE related to B-701: AST elevation, # of subjects” value worked out at 1 subjects; the “Grade 3 or higher AE related to B-701: AST elevation, % of subjects” value is “(5%)”. Moreover, the “survival” value in data set [1] was “significantly extended survival”.
